These sequences were tested on Saccharomyces cerevisiae (assay: transcriptional activation domain activity (GFP:mCherry ratio, weighted mean of sorted bins, harmonized to initial dataset scale) (arbitrary fluorescence ratio units); higher = stronger transcriptional activation). Details: beta-estradiol 1 µM; induction time 4 h.
Procedure, shortened: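 Protein tiles carrying barcodes and fused to an estradiol-inducible synthetic transcription factor were placed at the URA3 locus of yeast diploids with a GFP reporter. Following 4 hours at 30 °C in SC with 1 uM beta-estradiol, cells were sorted into 8 GFP:mCherry bins, barcodes were sequenced, and tiles with fewer than 50 reads were discarded. Activation activity is given as the read-weighted mean of bin median fluorescence, averaged across barcodes and linearly mapped to the initial dataset scale.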

Sequence	transcriptional activation domain activity
LLYLPAVLEIYQDVHRSDLSSTVSWETFVAKIFEWMELQYVWPIAGKLLVTIF	74800
NPERRTGGRGGEGEKGRRREERDAGNRRRGGRNRAQRPKKGRRREGGRRGRGR	48800
VRSRALLFVFKYYFFLVYFVFYRNLFARLRSFDQFALVQLLSSFWVCIWYPFS	48400
FLSLLVLVCWVPCFVIMEVYLKSLTFNSVPYPPIHCFTPEGSHILYLCWGLIA	32200
GELYIYRLISSGLIFDTLWSLVTFGHPKGHPLPQYPCTVDMPDDFFRVRLVCV	65900
FDHPLIPNRRKTYMRFEGCNPDMGCTIILRGADIITLRRLKKVMRFVTFMVRN	70100
IIFYLIISIIIIIILLLFYYYLLFIIMFFIQDVGCWLLLWCFVGLFELLLQLL	28700
MGLLGGRRAADYYLFLFFLFFFYLSLFSPRFSSFLHFPSYIELVGFFFFLLRL	36700
KAGKKKYVESVNGRRREVLVIVGKDGKTKRKTRWLDPESAATETGVPWGLEVP	28800
MYTHALDPHDAANGLYSCLPCFYIFISTDDVARKIVLVPCIPLLKYALHAIQL	61900
NLLQHIIPPFFINHHHHYYSPFHTSYTFFFSTFVYALFFYIIMYLSIFISLLL	62200
ESHLVPEASKIWKPLDGYWMPSWMKYQIFIPLFMLQLLNLFWYFLIWHILIRA	44900
MPPAPKSPQPRRPGAPKSKGAVRAKSGCYTCRIRRKKCDEQMNAEGSCSTCVR	42800
EGGADGEEEEDGEEEVKEKVPAKRGRKPRGERVEEVSSPAAPVRGKKAKPTTA	41200
EMVDIFAHMDNIERLIAPFSVLAEHEVFHFNMLRIYYLTLRLLVLLHGVIEVK	75200
YLIILILFCFCHLWELDRWAHSLASQEKLRYSCVIGLTIFRLRCPLSLTKDAP	48900
TFARHTDQKWLEEVITEALNELAGLGIVRAHLIALRWCSERITITRVYCSRLL	43300
SLFFSVWALSQTWCVGHRRCSPMHLGTYYDAFIFLGISGMWKWSLLLIVIYRF	34000
GDDCEVFFLFTFTFTFFFFYFFPRVLFTPFFFYILDLSLFFYCCSCFFFFSPC	27100
WLSDENDGASHINVNKDSSSVLSASSSTWFEPLENIISSASSSSIGSPIEDQF	60800
WATVYLWTCHYQLLVYICTLIIIETRGFLKLGYVFLITLLLLSCIPHILLHVI	30300

Sequence	transcriptional activation domain activity
VKKHYKLYYLDPGRTREFIAVSWFEVDILLVRWCSTTEYYTMTVFMTSLKKLN	50000
FREELVHFFKDPNFDPKLAFESSSYIVNHVLKLTLVMWRYLLVKVEHSFLIAM	59800
FLSYFSGWLTVIAWQCLVASASYVSGTLLQGLLVLNYPTYVFERWQGTLLMYA	57900
MHYRSAILCHSFILYCLVVVLGVFFKVILVLIYNRVCVPLIVLCLFSYSLSLV	59100
MKVFCSSFPFSNPILFYFSLLQIIFDYWLYNFMGSFYFWLPLAPFFFFFFLVL	47500
IMTLFYSAQRHLNKLILATKIAAGVWPPPDAMAQLRFQIGQLLIFMQTFVSQC	67400
VHANQYYQLDVEIFKSSLDMELLGLLWNKYWINTLSQSPLISVSLFCYGHIFI	57800
KEENKKDDLKEATKKGRKPRAAKEEAKEEAEGVKPKGRKRKATEEASDEIVVA	23400
SFLSLFWLLCLGRFPIITKLFLGLYAVFYYVSRYKIGICFVVSIRWIWKSGNR	45600
AYTSTMFLQWHNHMVEFYHLRCMLGATLRNLDNENPGASLPVQLWLLFAWHML	42100
AAKPKDRIKYWNIVPGDRVRITGDKEGKLLEVAKINKLSNRVYLKGATTKAGS	44400
MDVEAKGRADRDAKRNPTACEHCRAARTRCQPSEQPGVCKKCLALKRECISRT	16500
GGGNRGRWPGDDSSDSSSSENERRGRRERRRRHRRRSASPDARRSGKGDAPKQ	< 6570
MVTIWDFFLGGWGWAFYIICLFFFLSFYFLSFFFFSLLSSFFFFGYSPSAVWV	29600
GEGEEDDVNGNKKRASDRSSSPKSKRSRKDEEEKEKEKKPTVKKPRQTKPKTT	31300
LCAPIEVFRNICLPFVRLLHPLFFLSLLVFVEIIFPLFIPLTLLHCFLVLFGV	55100
LGLSIWTPWKDVYTRLPKRIYAKLLATAEMEVKYKPKVLVSQIWNAVIISMYR	61600
MFMGTLLLVFLHYDWAFFLDCCLWCFVISFCFCSVKFCLLVGCCILVLCNVAR	70200
MFFFLLLFIIVMYGCLVCEVIHTSFVGLIMVSTLMLNAFSCFMSFTYFLFFLF	59000
LLCKKVVAFFQLLSESHVSGMRRLGVTQELLSLVTGLAHYLKLLIRICLQGAL	72100
